{"source": "paper PMC3516549", "about": "(PLoS Pathogens, 2012)", "key": {"[1]": {"molecular_target": "recombinant trimerized His-tagged soluble HA of A/South Carolina/1/18 (1918 wt) (Influenza A virus A/South …, UniProt Q9WFX3, strain)", "test": "BLI; […]; 1:1 binding model, […]", "conditions": "both partners purified"}, "[2]": {"molecular_target": "recombinant trimerized His-tagged soluble HA, A/South Carolina/1/18 (1918 wt) (Influenza A virus A/South …, UniProt Q9WFX3, strain)", "test": "BLI", "conditions": "both partners purified"}}, "note": "Where “and” joins values, the source holds several entries; their conditions need not be identical. Equal entries are not always repeated.", "data": [{"binder": "1I20 Fab (Fab, V domains shown, also called mAb 1I20; source: HEK 293F, transiently co-transfected, purified (HiTrap Protein G)) VH: EVQLVESGGGVVQPGGSLRLSCIASAFNLGIFGMHWVRQAPGKGLEWVAFIRYDGGKTFYADSVKGRFTISRDNSKNTLYLQMNSLRTEDTALYYCARDATADYYGPGSYPNWLDPWGQGTLVTVSS VL: DIRLTQSPATLSVSPGERATLSCRASHSVSRNLAWYQQKPGRAPRLLVYDTSSRATGIPARFSGSGSGTEFTLTISSLQSEDFAVYYCQQYNNWPRTFGQGTKVDIK", "values": [{"measurement": "Kd", "setting": "[1]", "result": "3.22 nM and 3.46 nM"}, {"measurement": "koff", "setting": "[1]", "result": "0.000375 s⁻¹ and 0.000366 s⁻¹"}, {"measurement": "kon", "setting": "[1]", "result": "116000 M⁻¹ s⁻¹ and 106000 M⁻¹ s⁻¹"}]}, {"binder": "1I20 Fab (Fab, V domains shown, also called mAb 1I20) VH: EVQLVESGGGVVQPGGSLRLSCIASAFNLGIFGMHWVRQAPGKGLEWVAFIRYDGGKTFYADSVKGRFTISRDNSKNTLYLQMNSLRTEDTALYYCARDATADYYGPGSYPNWLDPWGQGTLVTVSS VL: DIRLTQSPATLSVSPGERATLSCRASHSVSRNLAWYQQKPGRAPRLLVYDTSSRATGIPARFSGSGSGTEFTLTISSLQSEDFAVYYCQQYNNWPRTFGQGTKVDIK", "values": [{"measurement": "Kd", "setting": "[2]", "result": 3.3, "unit": "nM"}]}]}
